# Test results reported in patent publication US20180002403A1 (CRESCENDO BIOLOGICS, published 2018).
# Positions count from the first letter of the chain named.
# B1: clone 1.10 VH (VHH)
# VHH: VQLVESGGGLVQPGGSLRLSCAASGFTFSSYRMYWVRQAPGKGLEWVASIEQDGSEEYYVDSVKGRFTISRDNAKKSLFLQMNSLRAEDTAVYYCAKGEILPLYFDYWGQGTLVTVSS
# notes: Optimized variant of clone 1.1 from the recombination library; human VH single domain; also called optimized VH clone 1.10
# B2: clone 1.1 VH (VHH)
# VHH: EVQLVESGGGLVQPGGSLRLSCAASGFTFSSYSMYWVRQAPGKGLEWVANIKQDGSEKYYVDSVKGRFTISRDNAKNSLFLQMNSLRAEDTAVYYCAKGEILPLHFDYWGQGTLVTVSS
# notes: Human VH single domain (no light chain) from a Tg/TKO mouse, lead raised against IL-17A; It was cloned in phagemid pUCG3; also called VH 1.1; parent VH 1.1
# B3: clone 1.6 VH (VHH)
# VHH: B2 VHH with N50E, K58Q, F80Y, H105Y
# notes: Optimized variant of clone 1.1 from the recombination library; human VH single domain; also called optimized VH clone 1.6
# B4: clone 2.2 VH (VHH)
# VHH: QVQLVQSGAEVKKPGASVKVSCKASGYPFTSYDINWVRQATGRSLEWMGWMNPTNGNTVYAQKFQDRVTMTRNTSISTAYMELSSLRSEDTAVYFCARGRRDDWKNNYWGQGTLVTVSS
# notes: Optimized variant of clone 2.1 from the recombination library; human VH single domain; also called optimized VH 2.2
# Columns and labels:
# [1] = target: T1, Recombinant human IL-17A (Peprotech AF-200-17) (human, UniProt Q16552 24-155); experiment: BIAcore T200, single-cycle kinetics, IL-17A amine-coupled to CM5 chip, 1:1 model
# T1 construct: Amine-coupled to a CM5 chip (100 RU) for BIAcore; also called recombinant IL-17A
# T1 sequence (Q16552 24-155 limits assumed): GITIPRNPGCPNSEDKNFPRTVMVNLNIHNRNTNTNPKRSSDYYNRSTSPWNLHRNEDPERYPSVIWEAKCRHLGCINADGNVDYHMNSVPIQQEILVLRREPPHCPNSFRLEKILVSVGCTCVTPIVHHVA
# Procedure: (§1) Recombinant IL-17A (Peprotech AF-200-17) was diluted to 1 μg/ml in acetate buffer, pH 5.5 (BIAcore, cat# BR-100-52) and coupled to a CM5 Series S chip (cat # BR-1006-68) using amine-coupling chemistry (NHS-EDC amine-coupling kit, cat # BR-1000-50) and the BIAcore immobilization Wizard software. In this way 100RU of IL-17A was immobilised plus a blank surface (no IL-17A) was also prepared for reference subtraction. For IL-17RA, first a protein G chip was prepared by diluting protein G to 20 μg/ml in acetate buffer, pH 4 (BIAcore, cat# BR-100-49) and then coupled 1200 RU a CM5 Series S chip using amine coupling chemistry. This surface was then used to capture IL-17RA Fc fusion protein from solution: IL-17RA at 10 μg/ml in HBS injected for 10 seconds at 30 μl/min flow rate would capture approximately 100-150RU of IL-17RA onto the protein G surface.
# (§2) Binding kinetics of optimized clone 1.1 (anti-IL-17A) and clone 2.1 (anti-IL-17RA) VH were determined by single-cycle kinetics. […] VH binding kinetics were then determined from the (blank subtracted) sensorgram traces using 1:1 binding models and BIAevaluation software.
# [2] = target: T1, Recombinant human IL-17A (Peprotech …); experiment: BIAcore T200, single-cycle kinetics, IL-17A amine-coupled to CM5 chip
# Procedure: Binding kinetics of VH antibodies were measured on a BIAcore T200 instrument. Target (either recombinant IL-17A or IL-17RA) was diluted to 1 μg/ml in acetate buffer, pH 5.5 (BIAcore, cat# BR-100-52) and coupled to a CM5 Series S chip (cat # BR-1006-68) using amine-coupling chemistry (NHS-EDC amine-coupling kit, cat # BR-1000-50) and the BIAcore immobilization Wizard software. In this way 100RU of target was immobilised plus a blank surface (no target) was also prepared for reference subtraction.
# Binding kinetics of VH antibodies were determined by single-cycle kinetics. VH antibodies were prepared in dilution series (typically 1:3 dilution series starting with 100 nM VH at the highest concentration), and then injected over the antigen-coated surfaces and also a blank surface, starting with the lowest concentration of VH and then working progressively up to the highest concentration. VH binding kinetics were then determined from the (blank subtracted) sensorgram traces using 1:1 binding models and BIAevaluation software.
# [3] = target: IL-17RA Fc fusion protein (human, UniProt Q96F46 33-320, limits assumed); experiment: BIAcore T200, single-cycle kinetics, IL-17RA Fc fusion captured on protein G chip, 1:1 model
# Procedure: as §1, §2
Binder,fold improvement in affinity over parent clone 1.1 [1] [fold],also measured
B1,≤ 10,–
B2,–,binding result [2]: binds
B3,≤ 10,–
B4,–,fold improvement in affinity over parent clone 2.1 [3]: 5 fold
